Measured values taken from PMC5895659, “Mechanistic and Structural Insights Into the Unique TetR-Dependent Regulation of a Drug Efflux Pump in Mycobacterium abscessus” (Frontiers in Microbiology, 2018).

What was measured:
[1] = target: MAB_4384 (TetR regulator) (Mycobacterium abscessus subsp. …, UniProt B1MJU8 1-221); test: competition; excess non-related labeled probe; shift of Probe 1 maintained; EMSA: 280 nM fluorescein probe, 1X TAE, 1 h, room temperature, 6% native PAGE in 1X TAE; SEC: 50 mM Tris-HCl pH 8, 200 mM NaCl, 5 mM beta-mercaptoethanol, 4 C; conditions: protein: recombinant; tags: Trx-His6 tag removed by TEV; residual Gly at N-terminus; chain copies: 4; label: 5' fluorescein; blunt
[2] = target: T1, MAB_4384 (TetR regulator) (Mycobacterium abscessus subsp. …, UniProt B1MJU8 1-221); test: EMSA; comparable to Probe 1; EMSA: 280 nM fluorescein probe, 1X TAE, 1 h, room temperature, 6% native PAGE in 1X TAE; SEC: 50 mM Tris-HCl pH 8, 200 mM NaCl, 5 mM beta-mercaptoethanol, 4 C; conditions: protein: recombinant; tags: Trx-His6 tag removed by TEV; residual Gly at N-terminus; chain copies: 4; label: 5' fluorescein; blunt
[3] = target: the molecule itself; test: SEC; ENrich SEC 650 column, 50 mM Tris-HCl pH 8, 200 mM NaCl, 5 mM beta-mercaptoethanol, 0.4 mL/min, 4 °C; MAB_4384 at 3.9 mg/mL; apparent mass from a calibration curve (42.6 kDa against 24.7 kDa theoretical)
[4] = target: T1, MAB_4384 (TetR regulator); test: EMSA; 280 nM probe; EMSA: 280 nM fluorescein probe, 1X TAE, 1 h, room temperature, 6% native PAGE in 1X TAE; SEC: 50 mM Tris-HCl pH 8, 200 mM NaCl, 5 mM beta-mercaptoethanol, 4 C; conditions: protein: recombinant; tags: Trx-His6 tag removed by TEV; residual Gly at N-terminus; chain copies: 4; label: 5' fluorescein; blunt
[5] = target: T2, MAB_4384 (D14N/F57L) (Mycobacterium abscessus subsp. …, UniProt B1MJU8 1-221, D14N;F57L); test: EMSA; fully abrogated; EMSA: 280 nM fluorescein probe, 1X TAE, 1 h, room temperature, 6% native PAGE in 1X TAE; SEC: 50 mM Tris-HCl pH 8, 200 mM NaCl, 5 mM beta-mercaptoethanol, 4 C; conditions: protein: recombinant; tags: Trx-His6 tag removed by TEV; residual Gly at N-terminus; chain copies: 2; label: 5' fluorescein; blunt
T2 sequence: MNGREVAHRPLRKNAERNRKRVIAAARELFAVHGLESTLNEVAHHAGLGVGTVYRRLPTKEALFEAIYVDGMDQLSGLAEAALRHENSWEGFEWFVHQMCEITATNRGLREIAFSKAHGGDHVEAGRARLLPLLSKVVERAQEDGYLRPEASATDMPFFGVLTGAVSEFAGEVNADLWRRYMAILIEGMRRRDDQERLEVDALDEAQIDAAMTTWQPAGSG

[6] = target: T1, MAB_4384 (TetR regulator); test: competition; cold probe vs 280 nM labeled Probe 1; dose-dependent decrease; EMSA: 280 nM fluorescein probe, 1X TAE, 1 h, room temperature, 6% native PAGE in 1X TAE; SEC: 50 mM Tris-HCl pH 8, 200 mM NaCl, 5 mM beta-mercaptoethanol, 4 C; conditions: protein: recombinant; tags: Trx-His6 tag removed by TEV; residual Gly at N-terminus; chain copies: 4; blunt

B1: Non-specific probe (dsDNA)
DNA 1: ATGGAACTTGAAGGACTGACCGCGTTG
DNA 2: CAACGCGGTCAGTCCTTCAAGTTCCAT
binding result [1]: no binding

B2: Probe 3 (flanks randomly changed) (dsDNA)
DNA 1: TCTGGATAAGCAAGTGGATTGACTCTATCCACTTCCGAAACCGAC
DNA 2: GTCGGTTTCGGAAGTGGATAGAGTCAATCCACTTGCTTATCCAGA
binding result [2]: binds

B3: MAB_4384 TetR regulator (natural protein)
chain: MNGREVAHRPLRKDAERNRKRVIAAARELFAVHGLESTLNEVAHHAGLGVGTVYRRFPTKEALFEAIYVDGMDQLSGLAEAALRHENSWEGFEWFVHQMCEITATNRGLREIAFSKAHGGDHVEAGRARLLPLLSKVVERAQEDGYLRPEASATDMPFFGVLTGAVSEFAGEVNADLWRRYMAILIEGMRRRDDQERLEVDALDEAQIDAAMTTWQPAGSG
notes: MAB_4384, TetR family transcriptional repressor of Mycobacterium abscessus subsp. abscessus CIP104536T; amplified from genomic DNA with the MAB_4384_full primers; theoretical mass 24.7 kDa; the account of the structure (chain A modelled Asp14 to Thr213, first thirteen and last eight residues not visible) implies residues 1-221; also called wild-type MAB_4384; source: E. coli BL21 Rosetta 2 (DE3), …
stoichiometry N [3]: 2

B4: Probe 1 (IRS5/L5 operator) (dsDNA)
DNA 1: CACTTCGCCATAAGTGGATTGACTCTATCCACTTTTACCCATAGA
DNA 2: TCTATGGGTAAAAGTGGATAGAGTCAATCCACTTATGGCGAAGTG
binding result [4]: binds | binding result [5]: no binding

B5: Probe 1 unlabeled (dsDNA)
DNA 1: CACTTCGCCATAAGTGGATTGACTCTATCCACTTTTACCCATAGA
DNA 2: TCTATGGGTAAAAGTGGATAGAGTCAATCCACTTATGGCGAAGTG
binding result [6]: binds
